Measurements reported in patent publication US20260258115A1 (MAPP BIOPHARMACEUTICAL, published 2026).

What was measured:
[1] = target: T1, RSV postfusion F (postF), subtype A (respiratory syncytial virus subtype A, UniProt P03420 26-513); assay: BLI
T1 construct: also called Postfusion subtype A; F deltaFP

[2] = target: T2, RSV prefusion F (preF), subtype B (respiratory syncytial virus subtype B); assay: BLI, IgG
T2 construct: also called Prefusion subtype B

Binder | binding result [1] | Kd [2] [nM]
ADI-19430 (antibody, V domains shown, full-length IgG) VH: QVQLVQSGAEVKKPGSSVKVSCKASGGTFSSYTISWVRQAPGQGLEWMGRIIPILGIANYAQKFQGRVTITADKSTSTAYMELSSLRSEDTAVYYCARDGGPYYYDSSGYYRLDYWGQGTLVTVSS VL: DIRMTQSPLSLPVTLGQPASISCRSSQSLVYSDGNTYLNWFQQRPGQSPRRLIYKVSNRDSGVPDRFSGSGSGTDFTLKISRVEAEDVGVYYCMQGTHWTYTFGQGTKLEIK | no binding | 16.8
ADI-24811 (antibody, V domains shown, full-length IgG) VH: QVQLVQSGAEVKKPGASVKVSCKASGYTFTSYDINWVRQATGQGLEWMGWMNPNSGNTGYAQKFQGRVTMTRNTSISTAYMELSSLRSEDTAVYYCARGLPGQWLEYYFDYWGQGTLVTVSS VL: SYVLTQPPSVSVAPGKTARITCGGNNIGSKSVHWYQQKPGQAPVLVIYYDSDRPSGIPERFSGSNSGNTATLTISRVEAGDEADYYCQVWDSSSDHPVFGGGTKVTVL | no binding | 4.29
ADI-19450 (antibody, V domains shown, full-length IgG; also called Ab 160) VH: EVQLLESGGGLVQPGGSLRLSCAASGFTFSSYWMHWVRQAPGKGLVWVSRINSDGSSTSYADSVKGRFTISRDNAKNTLYLQMNSLRAEDTAVYYCARAPISILRFLGGYFDYWGQGTLVTVSS VL: not shown | no binding | 38.6
ADI-25557 (antibody, V domains shown, full-length IgG) VH: EVQLLESGGGLVKPGGSLRLSCAASGFTFSSYSMNWVRQAPGKGLEWVSSISSSSSYIYYADSVKGRFTISRDNAKNSLYLQMNSLRAEDTAVYYCARGYGSGSYLDYFDYWGQGTLVTVSS VL: QPGLTQPPSVSGAPGQRVTISCTGSSSNIGAGYDVHWYQQLPGTAPKLLIYGNSNRPSGVPDRFSGSKSGTSASLAITGLQAEDEADYYCQSYDSSLSGFYVFGTGTKLTVL | no binding | 33.3
ADI-19507 (antibody, V domains shown, full-length IgG) VH: EVQLVESGGGLVKPGGSLRLSCAASGFTFSSYSMNWVRQAPGKGLEWVSSISSSSSYIYYADSVKGRFTISRDNAKNSLYLQMNSLRAEDTAVYYCAREVLTGDYLGWFDPWGQGTLVTVSS VL: QSVVTQPPSVSGAPGQRVTISCTGSSSNIGAGYDVHWYQQLPGTAPKLLIYGNSNRPSGVPDRFSGSKSGTSASLAITGLQAEDEADYYCQSYDSSHWVFGGGTKLTVL | no binding | 10.1
ADI-19465 (antibody, V domains shown, full-length IgG; also called Ab 170) VH: EVQLVESGGGLVKPGGSLRLSCAASGFTFSSYSMNWVRQAPGKGLEWVSSISSSSSYIYYADSVKGRFTISRDNAKNSLYLQMNSLRAEDTAVYYCAREGSSSWYYFDYWGQGTLVTVSS VL: QSVVTQPPSVSGAPGQRVTISCTGSSSNIGAGYDVHWYQQLPGTAPKLLIYGNSNRPSGVPDRFSGSKSGTSASLAITGLQAEDEADYYCQSYDSSLSGPWVFGGGTKLTVL | no binding | 19.4
ADI-24833 (antibody, V domains shown, full-length IgG) VH: QVQLVESGGGLVKPGGSLRLSCAASGFTFSSYSMNWVRQAPGKGLEWVSSISSSSSYIYYADSVKGRFTISRDNAKNSLYLQMNSLRAEDTAVYYCARALTYYYDSSGHGADYWGQGTLVTVSS VL: QSVVTQPPSVSGAPGQRVTISCTGSSSNIGAGYDVHWYQQLPGTAPKLLIYGNSNRPSGVPDRFSGSKSGTSASLAITGLQAEDEADYYCQSYDSSLSVVFGGGTKLTVL | no binding | 11.4
ADI-24847 (antibody, V domains shown, full-length IgG) VH: EVQLVESGGGLVKPGGSLRLSCAASGFTFSSYSMNWVRQAPGKGLEWVSSISSSSNYIYYADSVKGRFTISRDNAKNSLYLQMNSLRAEDTAVYYCARDRIAAYTFDYWGQGTLVTVSS VL: QSVVTQPPSVSGAPGQRVTISCTGSSSNIGAGYDVHWYQQLPGTAPKLLIYGNSNRPSGVPDRFSGSKSGTSASLAITGLQAEDEADYYCQSYDSSLPYVFGTGTKVTVL | no binding | 40
ADI-24855 (antibody, V domains shown, full-length IgG) VH: EVQLVESGGGLVKPGGSLRLSCAASGFTFSSYSMNWVRQAPGKGLEWVSSISSSSSYIYYADSVKGRFTISRDNAKNSLYLQMNSLRAEDTAVYYCARRYCTNGVCYDAFDIWGQGTMVTVSS VL: QSVVTQPPSVSGAPGQRVTISCTGSSSNIGAGYDVHWYQQLPGTAPKLLIYGNSNRPSGVPDRFSGSKSGTSASLAITGLQAEDEADYYCQSYDSSLSYVFGTGTKVTVL | no binding | 28
ADI-24836 (antibody, V domains shown, full-length IgG) VH: EVQLLESGGGLVQPGRSLRLSCAASGFTFDDYAMHWVRQAPGKGLEWVSGISWNSGSIGYADSVKGRFTISRDNAKNSLYLQMNSLRAEDTALYYCAKDLRGGTYYYYGMDVWGQGTTVTVSS VL: not shown | no binding | 3.44
ADI-19460 (antibody, V domains shown, full-length IgG) VH: QVQLQQWGAGLLKPSETLSLTCAVYGGSFSGYYWSWIRQPPGKGLEWIGEINHSGSTNYNPSLKSRVTISVDTSKNQFSLKLSSVTAADTAVYYCARGGITAYYYYYGMDVWGQGTTVTVSS VL: not shown | no binding | 6.01
ADI-19454 (antibody, V domains shown, full-length IgG) VH: EVQLLESGGGLVKPGGSLRLSCAASGFTFSSYSMNWVRQAPGKGLEWVSSISSSSSYIYYADSVKGRFTISRDNAKNSLYLQMNSLRAEDTAVYYCARGYCSGGSCYSHYFQHWGQGTLVTVSS VL: QSVLTQPASVSGSPGQSITISCTGTSSDVGGYNYVSWYQQHPGKAPKLMIYDVSNRPSGVSNRFSGSKSGNTASLTISGLQAEDEADYYCSSYTSSSTVVFGGGTKVTVL | no binding | 15.7
ADI-24826 (antibody, V domains shown, full-length IgG; also called Ab 388) VH: EVQLVESGGGLVKPGGSLRLSCAASGFTFSSYSMNWVRQAPGKGLEWVSSISSSSSYIYYADSVKGRFTISRDNAKNSLYLQMNSLRAEDTAVYYCARDRGYGSGALDYWGQGTLVTVSS VL: QPVLTQPASVSGSPGQSITISCTGTSSDVGGYNYVSWYQQHPGKAPKLMIYDVSNRPSGVSNRFSGSKSGNTASLTISGLQAEDEADYYCSSYTSSSTVVFGGGTKLTVL | no binding | 9.03
ADI-19449 (antibody, V domains shown, full-length IgG) VH: EVQLVESGGGLVKPGGSLRLSCAASGFTFSSYSMNWVRQAPGKGLEWVSSISSSSSYIYYADSVKGRFTISRDNAKNSLYLQMNSLRAEDTAVYYCARDSGSYLSYAFDIWGQGTMVTVSS VL: SYELTQPPSVSGAPGQRVTISCTGSSSNIGAGYDVHWYQQLPGTAPKLLIYGNSNRPSGVPDRFSGSKSGTSASLAITGLQAEDEADYYCQSYDSSLSGYVFGTGTKVTVL | no binding | 26
ADI-25472 (antibody, V domains shown, full-length IgG) VH: EVQLVESGGGLVKPGGSLRLSCAASGFTFSSYSMNWVRQAPGKGLEWVSSISSSSSYIYYADSVKGRFTISRDNAKNSLYLQMNSLRAEDTAVYYCARDDSSSWYYFDYWGQGTLVTVSS VL: QSVLTQPPSVSGAPGQRVTISCTGSSSNIGAGYDVHWYQQLPGTAPKLLIYGNSNRPSGVPDRFSGSKSGTSASLAITGLQAEDEADYYCQSYDSSLSGYVFGTGTKVTVL | no binding | 37.7
ADI-19457 (antibody, V domains shown, full-length IgG) VH: EVQLLESGGGLVKPGGSLRLSCAASGFTFSSYSMNWVRQAPGKGLEWVSSISSSSSYIYYADSVKGRFTISRDNAKNSLYLQMNSLRAEDTAVYYCARQGYCSGGSCYHIDYWGQGTLVTVSS VL: QSVVTQPPSVSGAPGQRVTISCTGSSSNIGAGYDVHWYQQLPGTAPKLLIYGNSNRPSGVPDRFSGSKSGTSASLAITGLQAEDEADYYCQSYDSSLSGWVFGGGTKLTVL | no binding | 16.7
ADI-24815 (antibody, V domains shown, full-length IgG) VH: EVQLVESGGGLVKPGGSLRLSCAASGFTFSSYSMNWVRQAPGKGLEWVSSISSSSSYIYYADSVKGRFTISRDNAKNSLYLQMNSLRAEDTAVYYCAREGYSSSSGYYYMDVWGKGTTVTVSS VL: QSVLTQPPSVSGAPGQRVTISCTGSSSNIGAGYDVHWYQQLPGTAPKLLIYGNSNRPSGVPDRFSGSKSGTSASLAITGLQAEDEADYYCQSYDSSLSGSVFGTGTKVTVL | no binding | 29.1
ADI-24840 (antibody, V domains shown, full-length IgG) VH: EVQLLESGGGLVKPGGSLRLSCAASGFTFSSYSMNWVRQAPGKGLEWVSSISSSSSYIYYADSVKGRFTISRDNAKNSLYLQMNSLRAEDTAVYYCARDQVYSYGYYFDYWGQGTLVTVSS VL: QSVLAQPPSVSGAPGQRVTISCTGSSSNIGAGYDVHWYQQLPGTAPKLLIYGNSNRPSGVPDRFSGSKSGTSASLAITGLQAEDEADYYCQSYDSSLSGSHVVFGGGTKLTVL | no binding | 7.8
ADI-22771 (antibody, V domains shown, full-length IgG; also called Ab 350) VH: EVQLVESGGGLVKPGGSLRLSCAASGFTFSSYSMNWVRQAPGKGLEWVSSISSSSSYIYYADSVKGRFTISRDNAKNSLYLQMNSLRAEDTAVYYCARDYSSGWYYFDYWGQGTLVTVSS VL: QPVLTQPPSVSGAPGQRVTISCTGSSSNIGAGYDVHWYQQLPGTAPKLLIYGNSNRPSGVPDRFSGSKSGTSASLAITGLQAEDEADYYCQSYDSSLSGSVFGGGTKLTVL | no binding | 9.41
ADI-24848 (antibody, V domains shown, full-length IgG) VH: EVQLVESGGGLVKPGGSLRLSCAASGFTFSSYSMNWVRQAPGKGLEWVSSISSSSSYIYYADSVKGRFTISRDNAKNSLYLQMNSLRAEDTAVYYCARDTVVAGIYFDYWGQGTLVTVSS VL: QSVLTQPPSVSGAPGQRVTISCTGSSSNIGAGYDVHWYQQLPGTAPKLLIYGNSNRPSGVPDRFSGSKSGTSASLAITGLQAEDEADYYCQSYDSSLSGVVFGGGTKLTVL | no binding | 35.6
ADI-24820 (antibody, V domains shown, full-length IgG) VH: QVQLVQSGAEVKKPGSSVKVSCKASGGTFSSYTISWVRQAPGQGLEWMGRIIPILGIANYAQKFQGRVTITADKSTSTAYMELSSLRSEDTAVYYCARDPPYLRAFDIWGQGTTVTVSS VL: not shown | no binding | 38.5
